From article PMC6434538 come the findings set out here.

Series [1] has as its target T1, RIG-I wild type (UniProt O95786 1-925).
T1 sequence: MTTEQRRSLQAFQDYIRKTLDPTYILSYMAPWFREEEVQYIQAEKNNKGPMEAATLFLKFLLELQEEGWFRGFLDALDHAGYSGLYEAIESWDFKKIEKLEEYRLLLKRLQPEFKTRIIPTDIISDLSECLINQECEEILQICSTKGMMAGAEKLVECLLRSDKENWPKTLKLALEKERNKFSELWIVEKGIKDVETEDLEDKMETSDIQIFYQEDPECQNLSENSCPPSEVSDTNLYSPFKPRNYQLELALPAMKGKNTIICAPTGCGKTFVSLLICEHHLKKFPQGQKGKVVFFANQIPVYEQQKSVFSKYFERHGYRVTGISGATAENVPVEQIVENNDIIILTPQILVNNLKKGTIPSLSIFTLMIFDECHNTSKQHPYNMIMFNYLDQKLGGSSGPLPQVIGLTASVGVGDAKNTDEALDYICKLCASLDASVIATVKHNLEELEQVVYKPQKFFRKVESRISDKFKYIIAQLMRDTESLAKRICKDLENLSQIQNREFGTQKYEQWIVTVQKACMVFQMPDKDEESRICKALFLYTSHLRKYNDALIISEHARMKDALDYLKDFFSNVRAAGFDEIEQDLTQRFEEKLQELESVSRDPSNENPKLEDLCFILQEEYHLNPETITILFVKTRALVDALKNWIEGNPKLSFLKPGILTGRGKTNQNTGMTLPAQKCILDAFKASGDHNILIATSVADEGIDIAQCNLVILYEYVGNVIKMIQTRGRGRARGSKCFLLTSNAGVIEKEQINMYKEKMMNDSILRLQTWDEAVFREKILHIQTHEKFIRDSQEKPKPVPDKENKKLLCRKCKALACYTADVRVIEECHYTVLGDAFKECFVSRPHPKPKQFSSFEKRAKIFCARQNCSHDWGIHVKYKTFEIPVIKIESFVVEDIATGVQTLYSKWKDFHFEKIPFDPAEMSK
Kind of series: fluorescence intensity titration.

The target of series [2] is T1, RIG-I wild type. The experiment in a line: fluorescence intensity titration. The source holds these as a separate data set.
The target of series [3] is T1, RIG-I wild type. The experiment in a line: ATPase titration or fluorescence titration.

Like-named read-outs stand apart in the source and are kept apart here.

B1: 5'OH dsRNA 27 bp (dsRNA)
RNA 1: AUACGUCCUGAUAGUUAGUAUCCAUCG
RNA 2: CGAUGGAUACUAACUAUCAGGACGUAU
modifications: 5'OH
For B1, the binding signal with RIG-I wild type [1] is 1.5 fold higher Kd than 5'ppp dsRNA.

B2: 3'ovg dsRNA (dsRNA)
RNA 1: ACGUCCUGAUAGUUAGUAUCCAUCG
RNA 2: CGAUGGAUACUAACUAUCAGGACGUAU
modifications: 5'OH
For the molecule B2, the binding signal with RIG-I wild type [2] was 50 fold higher Kd than 5'ppp dsRNA; with RIG-I wild type [1], 7 fold higher Kd than 5'ppp dsRNA.

B3: 5'ppp dsRNA 27 bp (dsRNA)
RNA 1: AUACGUCCUGAUAGUUAGUAUCCAUCG
RNA 2: CGAUGGAUACUAACUAUCAGGACGUAU
modifications: 5'-triphosphate on strand 1
B3: in the series with RIG-I wild type [3], binding was put at a Kd of 2.5 nM.
